In US9512212 (ARIZONA BOARD OF REGENTS A BODY CORPORATE OF THE STATE OF …, dated 2016):

Experiments:
β-amyloid (Aβ) [1] = biological target: T1, β-amyloid (Aβ) (UniProt P05067 672-711, limits assumed); test: not stated (clone from standard affinity maturation of H1)
T1 construct: Aβ is a fragment of it; also called beta amyloid; Ab40

β-amyloid (Aβ) [2] = biological target: T1, β-amyloid (Aβ); test: not stated (standard affinity maturation)

T1 sequence (P05067 672-711 limits assumed): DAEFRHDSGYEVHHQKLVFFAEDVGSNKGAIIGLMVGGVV

B1: H1v2 anti-Ab40 scFv (scFv)
scFv: MAEVQLVESGGGVVRPGGSLRLSCAASGFTFDDYGMSWVRQAPGKGLEWVSGINWNGGSTGYADSVKGRFTISRDNAKNSLYLQMNSLRAEDTAVYYCARRRYALDYWGQGTLVTVSRGGGGSGGGGSGGGGSSELTQDPAVSVALGQTVRITCQGDSLRSYYASWYQQKPGQAPVLVIYGKNNRPSGIPDRFSGSSSGNTASLTITGAQAEDEADYYCNSRDSSGNHVVFGGGTKLTVLG
notes: also called H1v2 clone
In the case of B1, the Kd (β-amyloid (Aβ) [1]) is reported as 247 nM and the “fold increase in affinity over the parent H1 scFv” value (β-amyloid (Aβ) [2]) is reported as ~5 fold.
